First the molecules themselves.
B1: Double-stranded RNA-specific adenosine deaminase, residues 296 to 358; numbered along this chain, P55265 (parent)
chain: MAEIKEKICDYLFNVSDSSALNLAKNIGLTKARDINAVLIDMERQGDVYRQGTTPPIWHLTDK

± gives the uncertainty stated by the source.

The series covers variants of B1. Description: abundance fitness (aPCA) (normalised: wild type 0, dead -1); higher = more abundant; growth selection in yeast, the domain comes from the species named. The note with it: Homo sapiens.
In the case of MAEIKEKICDYLFNVSDSSALNLAKNIGLTKARDINAVLIDMFRQGDVYRQGTTPPIWHLTDK, the abundance fitness is -0.748 ± 0.14.

As to MAEIKEKICDYLFNVSDSSALNLAKNIGLTKARDINAVLIDMARQGDVYRQGTTPPIWHLTDK, the abundance fitness is -0.66 ± 0.057. MAEIKEKICDYLFNVSDSSALNLAKNIGLTKARDINAVLIDMHRQGDVYRQGTTPPIWHLTDK: the abundance fitness is -0.798 ± 0.2.

Regarding MAEIKEKICDYLFNVSDSSALNLAKNIGLTKARDINAVLIDMRRQGDVYRQGTTPPIWHLTDK, the abundance fitness was -0.927 ± 0.067.

MAEIKEKICDYLFNVSDSSALNLAKNIGLTKARDINAVLIDMYRQGDVYRQGTTPPIWHLTDK: the abundance fitness is -0.725 ± 0.084. Consider MAEIKEKICDYLFNVSDSSALNLAKNIGLTKARDINAVLIDMIRQGDVYRQGTTPPIWHLTDK, for which the abundance fitness is -1.13 ± 0.19. In the case of MAEIKEKICDYLFNVSDSSALNLAKNIGLTKARDINAVLIDMQRQGDVYRQGTTPPIWHLTDK it was -0.447 ± 0.093; in that of MAEIKEKICDYLFNVSDSSALNLAKNIGLTKARDINAVLIDMLRQGDVYRQGTTPPIWHLTDK, -0.93 ± 0.078. For the variant MAEIKEKICDYLFNVSDSSALNLAKNIGLTKARDINAVLIDMMRQGDVYRQGTTPPIWHLTDK, the abundance fitness was -0.848 ± 0.12.

For MAEIKEKICDYLFNVSDSSALNLAKNIGLTKARDINAVLIDMPRQGDVYRQGTTPPIWHLTDK, the abundance fitness was -0.729 ± 0.077. The value for MAEIKEKICDYLFNVSDSSALNLAKNIGLTKARDINAVLIDMVRQGDVYRQGTTPPIWHLTDK was -0.873 ± 0.076. In the case of MAEIKEKICDYLFNVSDSSALNLAKNIGLTKARDINAVLIDMSRQGDVYRQGTTPPIWHLTDK, the abundance fitness is -0.841 ± 0.08. The value for MAEIKEKICDYLFNVSDSSALNLAKNIGLTKARDINAVLIDMNRQGDVYRQGTTPPIWHLTDK was -0.697 ± 0.12; that for MAEIKEKICDYLFNVSDSSALNLAKNIGLTKARDINAVLIDMTRQGDVYRQGTTPPIWHLTDK was -1.07 ± 0.14. The value for MAEIKEKICDYLFNVSDSSALNLAKNIGLTKARDINAVLIDMGRQGDVYRQGTTPPIWHLTDK was -0.508 ± 0.093; that for MAEIKEKICDYLFNVSDSSALNLAKNIGLTKARDINAVLIDMDRQGDVYRQGTTPPIWHLTDK was -0.665 ± 0.084; that for MAEIKEKICDYLFNVSDSSALNLAKNIGLTKARDINAVLIDMEQQGDVYRQGTTPPIWHLTDK was 0.037 ± 0.061. The value for MAEIKEKICDYLFNVSDSSALNLAKNIGLTKARDINAVLIDMELQGDVYRQGTTPPIWHLTDK was -0.373 ± 0.055; that for MAEIKEKICDYLFNVSDSSALNLAKNIGLTKARDINAVLIDMETQGDVYRQGTTPPIWHLTDK was -0.043 ± 0.091.

Regarding MAEIKEKICDYLFNVSDSSALNLAKNIGLTKARDINAVLIDMEWQGDVYRQGTTPPIWHLTDK, the abundance fitness was -0.705 ± 0.14. For the variant MAEIKEKICDYLFNVSDSSALNLAKNIGLTKARDINAVLIDMEYQGDVYRQGTTPPIWHLTDK, the abundance fitness is -0.614 ± 0.13. Consider MAEIKEKICDYLFNVSDSSALNLAKNIGLTKARDINAVLIDMESQGDVYRQGTTPPIWHLTDK, for which the abundance fitness is -0.173 ± 0.046. In the case of MAEIKEKICDYLFNVSDSSALNLAKNIGLTKARDINAVLIDMEMQGDVYRQGTTPPIWHLTDK it was -0.27 ± 0.061; in that of MAEIKEKICDYLFNVSDSSALNLAKNIGLTKARDINAVLIDMEEQGDVYRQGTTPPIWHLTDK, -0.126 ± 0.057; in that of MAEIKEKICDYLFNVSDSSALNLAKNIGLTKARDINAVLIDMEAQGDVYRQGTTPPIWHLTDK, 0.079 ± 0.05. Regarding MAEIKEKICDYLFNVSDSSALNLAKNIGLTKARDINAVLIDMEGQGDVYRQGTTPPIWHLTDK, the abundance fitness was -0.334 ± 0.05. For MAEIKEKICDYLFNVSDSSALNLAKNIGLTKARDINAVLIDMEIQGDVYRQGTTPPIWHLTDK, the abundance fitness is -0.26 ± 0.092. Regarding MAEIKEKICDYLFNVSDSSALNLAKNIGLTKARDINAVLIDMEHQGDVYRQGTTPPIWHLTDK, the abundance fitness is -0.274 ± 0.13.

MAEIKEKICDYLFNVSDSSALNLAKNIGLTKARDINAVLIDMEDQGDVYRQGTTPPIWHLTDK: the abundance fitness is -0.175 ± 0.13. Take MAEIKEKICDYLFNVSDSSALNLAKNIGLTKARDINAVLIDMEKQGDVYRQGTTPPIWHLTDK: the abundance fitness amounted to 0.067 ± 0.064. As for MAEIKEKICDYLFNVSDSSALNLAKNIGLTKARDINAVLIDMENQGDVYRQGTTPPIWHLTDK, the abundance fitness was -0.056 ± 0.094. Turning to MAEIKEKICDYLFNVSDSSALNLAKNIGLTKARDINAVLIDMECQGDVYRQGTTPPIWHLTDK, the abundance fitness was -0.6 ± 0.1. For MAEIKEKICDYLFNVSDSSALNLAKNIGLTKARDINAVLIDKERQGDVYRQGTTPPIWHLTDK, the abundance fitness is -0.303 ± 0.08.

For the variant MAEIKEKICDYLFNVSDSSALNLAKNIGLTKARDINAVLIDSERQGDVYRQGTTPPIWHLTDK, the abundance fitness is -0.613 ± 0.061. In the case of MAEIKEKICDYLFNVSDSSALNLAKNIGLTKARDINAVLIDQERQGDVYRQGTTPPIWHLTDK, the abundance fitness is -0.335 ± 0.057. For the variant MAEIKEKICDYLFNVSDSSALNLAKNIGLTKARDINAVLIDNERQGDVYRQGTTPPIWHLTDK, the abundance fitness is -0.412 ± 0.12. In the case of MAEIKEKICDYLFNVSDSSALNLAKNIGLTKARDINAVLIDIERQGDVYRQGTTPPIWHLTDK it was -1.03 ± 0.13; in that of MAEIKEKICDYLFNVSDSSALNLAKNIGLTKARDINAVLIDTERQGDVYRQGTTPPIWHLTDK, -0.636 ± 0.074; in that of MAEIKEKICDYLFNVSDSSALNLAKNIGLTKARDINAVLIDLERQGDVYRQGTTPPIWHLTDK, -0.369 ± 0.047. Take MAEIKEKICDYLFNVSDSSALNLAKNIGLTKARDINAVLIDVERQGDVYRQGTTPPIWHLTDK: the abundance fitness is -0.774 ± 0.079.

With MAEIKEKICDYLFNVSDSSALNLAKNIGLTKARDINAVLIDWERQGDVYRQGTTPPIWHLTDK, the abundance fitness was -0.795 ± 0.11. As to MAEIKEKICDYLFNVSDSSALNLAKNIGLTKARDINAVLIDRERQGDVYRQGTTPPIWHLTDK, the abundance fitness was -0.629 ± 0.051. The value for MAEIKEKICDYLFNVSDSSALNLAKNIGLTKARDINAVLIDPERQGDVYRQGTTPPIWHLTDK was -0.502 ± 0.059.
